According to article doi:10.1101/495473v2:

Tests used:
Test in all cases: purified protein
Settings in all cases: 5 mM MgCl2, 200 mM Tricine-NaOH pH 7.4, 37 °C
purified protein [1] = substrate: C[C@H](OP(=O)(O)O)C(=O)O
purified protein [2] = substrate: O=C(O)COP(=O)(O)O
purified protein [3] = substrate: O=P(O)(O)OC(CO)CO

B1: PbPGP (Plasmodium berghei ANKA) (protein)
chain: MSLIVSEASQNNYFKDSENSYNSFMKEWKIEKRVNVKDLYQNFEVFFFDCDGVLWRGDTVINGAIEVINKLISDNKKVYFITNNSTKSRDTLLGKFHKLGFTCVKKEHIICTSYAIAKYFHSKEEYKSRKKKIYVIGEKGICDELDALNLVWLGSYKDNDKKVIIQDEGEIQIDNNIGAVVVAIDFNINYYKIQYAQLCINGLDAEFIVSNKDPLANFTSNQQWAGTGSIVASIEQVSFKKPKVLGKPNLFMIESVLKSLNIDLSKVVMIGDRLDTDIFFAQNCKIKSILVSTGVTDANVFLNHNNLNIKPDYFMKSILEFL
B1 gave a Km (purified protein [1]) of 4773 ± 574 µM, a kcat (purified protein [1]) of 67.34 ± 8.31 s⁻¹ and a Km (purified protein [2]) of 2526 ± 494 µM. The kcat (purified protein [2]) was 75.15 ± 7.86 s⁻¹, the Km (purified protein [3]) was 2110 ± 11 µM and the kcat (purified protein [3]) was 10.18 ± 0.08 s⁻¹.
